According to the nanobody polyreactivity screen of Harvey et al. (2022):

Experiment: yeast display, Sf9 membrane polyspecificity reagent, FACS + sequencing; frameworks hold sequencing errors
In short: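 Nanobodies from a synthetic yeast display library (Saccharomyces cerevisiae BJ5465), induced 36–48 hours with galactose, were stained 1 hour at 4 °C with 10% biotinylated, detergent-solubilized Sf9 membrane reagent, enriched on streptavidin microbeads, then FACS-sorted. Anti-HA (expression) and streptavidin (reagent binding) fluorescence set low and high (top ~1%) gates. Polyreactivity labels come from the gate of origin. Genes were colony-PCR amplified, MiSeq 2 × 250 sequenced and filtered by CDR length.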
In the case of “QVQLVESGGGLVQAGGSLRLSSAASGITFRGSAMGWYRQAPGKERELVASITNTDSTYYADSVKGRFTISRDNAKHTVYLQMNSLKPEDTAVYYCAARRGRKYGYWGQGTQVTVSS”, the “polyreactivity (PSR sort gate)” value is reported as “high polyreactivity”.
For “QVQLVESGGGLVQAGGSLRLSSAASGITFYLYAMGWYRQAPGKERELVAGISSGGSTNYADSVKGRFTISRDNAKNTVYLQMNSLKPEDTAVYYCAAKLRGYRYGYWGHGTQVTVSS”, the “polyreactivity (PSR sort gate)” value was “high polyreactivity”.
With “QVQLVESGGGLVQAGGSLRLSSAASGITFYYYAMGWYRQAPGKERELVAAINWSGTSTYYADSVKGRFTISRDNAKNTVYLQMNSLKPEDTAVYYCNAERGRSFWWAYDYWGQGTQVTVSS” the “polyreactivity (PSR sort gate)” value was “low polyreactivity”.
For “QVQLVESGGGLVQAGGSLRLSSAASGLTFHRYAMGWYRQAPGKERELVAGISWSGASTYFADSVKGRFTISRDNAKNTVYLQMNSLKPEDTAVYYCAAVVPGLAYYRHGYWGQGTQVTVSS”, the “polyreactivity (PSR sort gate)” value was “high polyreactivity”.
In the case of “QVQLVESGGGLVQAGGSLRLSSAASGLTFPIYAMVWYTQAPGKEREFVAVITTSGGSTYYADSVKGRFTISRDNAKNTVFLQMNSLKPEDTSVYYCNARRIRHYYWGQGTQVTVSS”, the “polyreactivity (PSR sort gate)” value is reported as “high polyreactivity”.
For “QVQLVESGGGLVQAGGSLRLSSAASGLTLRTYAMGWYRQETGQERELVAAITSGGGSTYYADSVKGRFTISRDNSKNTVYLQLNSLNQEDTAFYYCAAKPVVRYVSFGYDYWGQGTDVTVSS”, the “polyreactivity (PSR sort gate)” value was “high polyreactivity”.
For “QVQLVESGGGLVQAGGSLRLSSAASGRIFFHNAMGWCRQAPGKDRELVAAIRSSTGSTYYADSVKGRFTISRDNAKNTVYLQMNSLKPEDNAVYYCAARSYDKYSRRVWGLGYWGQGTQVTVSS”, the “polyreactivity (PSR sort gate)” value was “high polyreactivity”.
For “QVQLVESGGGLVQAGGSLRLSSAASGRIFRFYAMGWYRQAPGKERELVAAITSGGSTYYADSVKGRFTISRDNAKNTVYLQMNRLKPEDTAVYYCANYYWGQGTQVTVSS”, the “polyreactivity (PSR sort gate)” value was “low polyreactivity”.
With “QVQLVESGGGLVQAGGSLRLSSAASGRIFRYYAMGWYSQAPGKERELVAAISWSGGNSYYADSVKGRFTISRDNAKNTVYLQMNSLKTEDTAVYYCNAYYLPSRYDYWGQGTQVTVSS” the “polyreactivity (PSR sort gate)” value was “high polyreactivity”.
In the case of “QVQLVESGGGLVQAGGSLRLSSAASGRIFSDYAMGWYRQAPGKERELVATITSGDSTNYGDSVKGRFTISRDNAKNTVYLQMNSLKTESTEVYYCNAERFPDYDYWGQGTQVTVSS”, the “polyreactivity (PSR sort gate)” value is reported as “low polyreactivity”.
For “QVQLVESGGGLVQAGGSLRLSSAASGRIFVYNAMGWYRQAPGKERELVAGISWSGARSHYADSVKGRFTISRDNAKKTVYLLMNSLKPEDTAVYYCAAYPQYRSFQYDYWGQGTQVTVSS”, the “polyreactivity (PSR sort gate)” value was “high polyreactivity”.
With “QVQLVESGGGLVQAGGSLRLSSAASGRIFYGYAMGWYRQAPGKERELVAGISYRGARTYYADSVKGRFTISRDNAKNTVYLQMNSLKPEDTAVYYCNAVPYYPFAFGALDYWGQGTQVTVSS” the “polyreactivity (PSR sort gate)” value was “high polyreactivity”.
For “QVQLVESGGGLVQAGGSLRLSSAASGRIFYHNTMGWYRQAPGKERELVAAIRSGSSTYYADSVKGRFTISRDNAKNTVYLQMNSLKPEDTAVYYCNARPWYSWGVDYDYWGQGTQVTVSS”, the “polyreactivity (PSR sort gate)” value was “low polyreactivity”.
For “QVQLVESGGGLVQAGGSLRLSSAASGRIFYKYVMGWYRQATGKERELVATITSGGSTYYADSVKGRFTISRDNAKNTVYLQMNSLKPEDTAVFYCAARKYYSRAYDYWGQGTQVTVSS”, the “polyreactivity (PSR sort gate)” value was “high polyreactivity”.
For “QVQLVESGGGLVQAGGSLRLSSAASGRILYRYAMGWYRQAPGKESELVAAIYRSGGDTYYADSVKGRFTITRDNAKNTVYLQMNSLIPEDTAVYYCAASFEGSGYRYDYWGQGSQVTVSS”, the “polyreactivity (PSR sort gate)” value was “low polyreactivity”.
With “QVQLVESGGGLVQAGGSLRLSSAASGRNFSRYAMGWYRQAPGKERELVAAINKSGGSTYYADSVKGRFTISRDNAKNTVYLQMNSLKPEDSAFYYCNAVYYWYKGDYWGQGSQVTVSS” the “polyreactivity (PSR sort gate)” value was “high polyreactivity”.
